Data set [1] has as its target DC-SIGNR neck domain, 7.5 repeat form, His2 tag (human). Kind of data set: SEC. Background: In gel filtration, larger molecules generally elute earlier.
The data set “SEC” concerns the molecule itself. Kind of data set: SEC.

The stoichiometry N is the number of molecules, sites or subunits per partner or assembly. In data set [1], “DC-SIGNR neck domain, 7.5 repeat form, His2 tag (domain or fragment)” came in with a stoichiometry N of 4.

B1: DC-SIGNR neck domain, 6.5 repeat polymorphic form, His2 tag (domain or fragment)
chain: KVPSSLSQEQSEQDAIYQNLTQLKAAVGELSEKSKLQEIYQELTQLKAAVGELPEKSKLQEIYQELTRLKAAVGELPEKSKLQEIYQELTRLKAAVGELPEKSKLQEIYQELTRLKAAVGELPEKSKLQEIYQELTELKAAVGELPEKSKLQEIYQELTQLKAAVE
For the molecule B1, in the data set “SEC”, the “stoichiometry N” value stood at 4.

Source of the values: paper PMC2680971 (Journal of Molecular Biology, 2009).
